Measured values as given in paper PMC7401805, “Tissue specific requirement of Drosophila Rcd4 for centriole duplication and ciliogenesis” (The Journal of Cell Biology, 2020).

B1: GST-tagged Rcd4 (natural protein, Drosophila melanogaster, UniProt Q9VLM6 1-199, looked up)
chain: MPHKRRNRVHANQRNFTARRVSVAKLSSAPPNVLVESCNGSHADNSSPDSPKAKEGAMTNGKNPEIKLAVPKCNTTVRKQNEAHIISNIKLDMNLNKDSNFIAPQITKKMNFAPNRVVFGVLVPLNVNDSVLVPHNRKPDALKHTSKESESCKAISEPQLADYAEKVDPMIMAVKEPVLHLDWEPGPFDFFGAYRRTYN
notes: Rcd4, Drosophila melanogaster; 199 amino acid protein; also called GST::Rcd4; GST-Rcd4; source: E. coli Rosetta BL21(DE3), purified on glutathione-sepharose 4B beads; not shown: GST, N-terminal, kept
B2: MBP-tagged Rcd4 (natural protein, Drosophila melanogaster, UniProt Q9VLM6 1-199, looked up)
chain: B1 chain
notes: Rcd4, Drosophila melanogaster; 199 amino acid protein; also called MBP::Rcd4; MBP-Rcd4; source: E. coli Rosetta BL21(DE3), purified; not shown: MBP, N-terminal, kept

Columns and labels:
[1] = molecular target: T1, MBP-tagged Ana3-C1 fragment (amino acids 1195-1977) (Drosophila melanogaster, UniProt A1Z8X3 1195-1977); assay: pull-down; GST-Rcd4 held on glutathione-sepharose 4B beads, MBP-tagged Ana3 fragment added, 1 h at 4°C; 20 mM Tris pH 7.5, 200 mM NaCl, 1 mM DTT, 10% glycerol; SDS-PAGE (Coomassie) and anti-MBP Western blot; settings: both partners purified
T1 construct: Vector pKM596; also called MBP::Ana3 C1; Ana3-C terminal 1; source: E. coli Rosetta BL21(DE3), purified; not shown: MBP, N-terminal, kept
T1 sequence (looked up): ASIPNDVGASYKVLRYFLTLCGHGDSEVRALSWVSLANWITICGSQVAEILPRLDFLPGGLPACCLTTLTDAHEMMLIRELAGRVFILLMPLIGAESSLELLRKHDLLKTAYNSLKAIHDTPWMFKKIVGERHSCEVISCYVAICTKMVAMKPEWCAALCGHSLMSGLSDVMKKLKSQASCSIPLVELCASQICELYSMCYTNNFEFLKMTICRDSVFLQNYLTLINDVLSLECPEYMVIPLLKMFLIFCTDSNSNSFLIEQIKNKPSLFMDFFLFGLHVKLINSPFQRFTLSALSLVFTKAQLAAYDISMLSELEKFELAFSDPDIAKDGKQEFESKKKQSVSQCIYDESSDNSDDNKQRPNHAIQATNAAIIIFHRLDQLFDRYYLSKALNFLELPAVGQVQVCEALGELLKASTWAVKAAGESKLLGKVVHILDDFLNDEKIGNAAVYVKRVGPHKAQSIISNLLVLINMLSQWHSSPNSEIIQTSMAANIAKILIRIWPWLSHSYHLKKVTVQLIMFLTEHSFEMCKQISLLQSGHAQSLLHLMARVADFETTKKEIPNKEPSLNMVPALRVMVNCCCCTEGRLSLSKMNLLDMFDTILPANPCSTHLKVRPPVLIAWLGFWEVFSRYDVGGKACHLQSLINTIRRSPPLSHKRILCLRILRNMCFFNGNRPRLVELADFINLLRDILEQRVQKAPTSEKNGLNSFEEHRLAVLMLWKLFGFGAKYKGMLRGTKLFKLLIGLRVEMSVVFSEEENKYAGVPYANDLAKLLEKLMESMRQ

[2] = molecular target: T2, GST-tagged full-length Ana3 (Drosophila melanogaster, UniProt A1Z8X3 1-1977); assay: pull-down; full-length GST-Ana3 purified from S. cerevisiae incubated with MBP-Rcd4 purified from E. coli; GST::Ana3 purified, SDS-PAGE (Coomassie) and Western blot for MBP::Rcd4; settings: both partners purified
T2 construct: Ana3, Drosophila melanogaster; also called GST::Ana3; GST-Ana3; source: S. cerevisiae (plasmid pMG1): coexpressed with 6xHis-Rcd4, in crude extract; also expressed alone and purified on glutathione beads

Binder | binding result [1] | binding result [2]
B1 | binds | 
B2 |  | binds
